B1: CER104: Chimeric engulfment receptor: Tim4 binding, Tim4 transmembrane, TLR8 and DAP12 signaling; SEQ ID NO: 139 (protein)
chain: MSKGLLLLWLVTELWWLYLTPAASEDTIIGFLGQPVTLPCHYLSWSQSRNSMCWGKGSCPNSKCNAELLRTDGTRIISRKSTKYTLLGKVQFGEVSLTISNTNRGDSGVYCCRIEVPGWFNDVKKNVRLELRRATTTKKPTTTTRPTTTPYVTTTTPELLPTTVMTTSVLPTTTPPQTLATTAFSTAVTTCPSTTPGSFSQETTKGSAFTTESETLPASNHSQRSMMTISTDIAVLRPTGSNPGILPSTSQLTTQKTTLTTSESLQKTTKSHQINSRQTILIIACCVGFVLMVLLFLAFLHHLFYWDVWFIYNVCLAKVKGYRSLSTSQTFYDAYISYDTKDASVTDWVINELRYHLEESRDKNVLLCLEERDWDPGLAIIDNLMQSINQSKKTVFVLTKKYAKSWNFKTAFYLALQRLMDENMDVIIFILLEPVLQHSQYLRLRQRICKSSILQWPDNPKAEGLFWQTLRNVVLTENDSRYNNMYVDSIKQYYFLGRLVPRGRGAAEAATRKQRITETESPYQELQGQRSDVYSDLNTQRPYYK
modifications: CER104, amino acids 1-22 are signal peptide
B2: CER117: Chimeric engulfment receptor: Tim4 binding, Tim4 transmembrane, TLR8 and TRAF6 signaling; SEQ ID NO: 153 (protein)
chain: MSKGLLLLWLVTELWWLYLTPAASEDTIIGFLGQPVTLPCHYLSWSQSRNSMCWGKGSCPNSKCNAELLRTDGTRIISRKSTKYTLLGKVQFGEVSLTISNTNRGDSGVYCCRIEVPGWFNDVKKNVRLELRRATTTKKPTTTTRPTTTPYVTTTTPELLPTTVMTTSVLPTTTPPQTLATTAFSTAVTTCPSTTPGSFSQETTKGSAFTTESETLPASNHSQRSMMTISTDIAVLRPTGSNPGILPSTSQLTTQKTTLTTSESLQKTTKSHQINSRQTILIIACCVGFVLMVLLFLAFLHHLFYWDVWFIYNVCLAKVKGYRSLSTSQTFYDAYISYDTKDASVTDWVINELRYHLEESRDKNVLLCLEERDWDPGLAIIDNLMQSINQSKKTVFVLTKKYAKSWNFKTAFYLALQRLMDENMDVIIFILLEPVLQHSQYLRLRQRICKSSILQWPDNPKAEGLFWQTLRNVVLTENDSRYNNMYVDSIKQYMSLLNCENSCGSSQSESDCCVAMASSCSAVTKDDSVGGTASTGNLSSSFMEEIQGYDVEFDPPLESKYECPICLMALREAVQTPCGHRFCKACIIKSIRDAGHKCPVDNEILLENQLFPDNFAKREILSLMVKCPNEGCLHKMELRHLEDHQAHCEFALMDCPQCQRPFQKFHINIHILKDCPRRQVSCDNCAASMAFEDKEIHDQNCPLANVICEYCNTILIREQMPNHYDLDCPTAPIPCTFSTFGCHEKMQRNHLARHLQENTQSHMRMLA
modifications: CER117, amino acids 1-22 are signal peptide
B3: CER116: Chimeric engulfment receptor: Tim4 binding, Tim4 transmembrane, TRAF6 and TLR8 signaling; SEQ ID NO: 152 (protein)
chain: MSKGLLLLWLVTELWWLYLTPAASEDTIIGFLGQPVTLPCHYLSWSQSRNSMCWGKGSCPNSKCNAELLRTDGTRIISRKSTKYTLLGKVQFGEVSLTISNTNRGDSGVYCCRIEVPGWFNDVKKNVRLELRRATTTKKPTTTTRPTTTPYVTTTTPELLPTTVMTTSVLPTTTPPQTLATTAFSTAVTTCPSTTPGSFSQETTKGSAFTTESETLPASNHSQRSMMTISTDIAVLRPTGSNPGILPSTSQLTTQKTTLTTSESLQKTTKSHQINSRQTILIIACCVGFVLMVLLFLAFLMSLLNCENSCGSSQSESDCCVAMASSCSAVTKDDSVGGTASTGNLSSSFMEEIQGYDVEFDPPLESKYECPICLMALREAVQTPCGHRFCKACIIKSIRDAGHKCPVDNEILLENQLFPDNFAKREILSLMVKCPNEGCLHKMELRHLEDHQAHCEFALMDCPQCQRPFQKFHINIHILKDCPRRQVSCDNCAASMAFEDKEIHDQNCPLANVICEYCNTILIREQMPNHYDLDCPTAPIPCTFSTFGCHEKMQRNHLARHLQENTQSHMRMLAHHLFYWDVWFIYNVCLAKVKGYRSLSTSQTFYDAYISYDTKDASVTDWVINELRYHLEESRDKNVLLCLEERDWDPGLAIIDNLMQSINQSKKTVFVLTKKYAKSWNFKTAFYLALQRLMDENMDVIIFILLEPVLQHSQYLRLRQRICKSSILQWPDNPKAEGLFWQTLRNVVLTENDSRYNNMYVDSIKQY
modifications: CER116, amino acids 1-22 are signal peptide

System: SCC152 cells
Experiment: Elimination of GFP-expressing SCC152 target cells over time (quantification and time lapse imaging)
Type: cell-based
Conditions: for number of SCC152 cells in time lapse imaging: 96-well co-culture, CD8+/E7 TCR + CD4+/CER + SCC152 1:1:1, compared to control; for elimination of SCC152 cells, time lapse imaging: 0 to 36 hrs, compared to the control; for elimination of SCC152 cells (GFP quantification): by 36 hrs, 1:1:1 ratio (CD8:CD4:target cell), compared to control
Procedure, shortened: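 GFP-labelled SCC152 (HPV16+) target cells were co-cultured at 1:1:1 with CD8+ T cells carrying an HPV16 E7 TCR and with CD4+ T cells transduced with a chimeric CER or a control. Remaining target cells were counted by fluorescence imaging and automated software at 0, 12, 24, 36 h or 0, 24, 48 h.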

Molecule	number of SCC152 cells in time lapse imaging	elimination of SCC152 cells, time lapse imaging	elimination of SCC152 cells (GFP quantification)
B1	decreasing in numbers over time		
B2		enhanced elimination of SCC152 cells	nearly complete elimination
B3	decreasing in numbers over time	enhanced elimination of SCC152 cells	nearly complete elimination

From patent US12303551B2, “Cellular immunotherapy compositions and uses thereof” (CERO THERPEUTICS HOLDINGS, INC., priority 2018, dated 2025)
